Reference: PMC6271940

T1: angiotensin I-converting enzyme (UniProt P12822)
T1 sequence: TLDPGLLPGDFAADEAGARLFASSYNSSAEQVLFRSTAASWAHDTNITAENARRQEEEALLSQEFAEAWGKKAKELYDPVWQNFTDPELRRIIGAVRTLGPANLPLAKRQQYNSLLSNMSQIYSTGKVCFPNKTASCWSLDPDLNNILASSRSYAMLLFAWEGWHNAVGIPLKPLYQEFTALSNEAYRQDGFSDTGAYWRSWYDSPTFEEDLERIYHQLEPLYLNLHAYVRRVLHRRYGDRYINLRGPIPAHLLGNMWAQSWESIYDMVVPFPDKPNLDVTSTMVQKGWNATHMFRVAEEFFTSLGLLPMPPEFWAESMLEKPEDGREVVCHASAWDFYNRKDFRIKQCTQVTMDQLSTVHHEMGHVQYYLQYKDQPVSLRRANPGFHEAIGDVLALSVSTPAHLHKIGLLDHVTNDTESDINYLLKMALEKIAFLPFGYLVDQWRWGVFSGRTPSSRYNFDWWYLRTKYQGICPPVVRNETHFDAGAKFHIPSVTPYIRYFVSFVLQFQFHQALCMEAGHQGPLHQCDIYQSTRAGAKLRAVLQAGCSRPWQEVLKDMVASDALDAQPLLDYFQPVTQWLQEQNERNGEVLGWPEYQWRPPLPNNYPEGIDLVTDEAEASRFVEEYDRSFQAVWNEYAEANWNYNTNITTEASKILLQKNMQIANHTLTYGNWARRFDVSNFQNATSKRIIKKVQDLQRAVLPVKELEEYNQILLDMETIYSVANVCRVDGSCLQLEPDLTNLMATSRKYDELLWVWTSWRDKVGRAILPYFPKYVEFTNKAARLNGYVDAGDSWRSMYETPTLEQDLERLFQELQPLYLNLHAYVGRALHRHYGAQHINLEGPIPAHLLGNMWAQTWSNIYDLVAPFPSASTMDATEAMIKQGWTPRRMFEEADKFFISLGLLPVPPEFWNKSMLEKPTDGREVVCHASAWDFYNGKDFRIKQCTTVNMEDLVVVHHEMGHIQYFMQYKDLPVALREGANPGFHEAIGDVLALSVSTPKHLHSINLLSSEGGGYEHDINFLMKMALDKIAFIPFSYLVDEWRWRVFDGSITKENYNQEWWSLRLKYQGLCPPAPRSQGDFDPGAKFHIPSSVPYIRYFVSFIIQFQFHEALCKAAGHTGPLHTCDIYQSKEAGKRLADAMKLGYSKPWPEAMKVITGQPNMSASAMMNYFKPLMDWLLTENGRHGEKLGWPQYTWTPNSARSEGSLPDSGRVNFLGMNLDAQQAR


Target: T1, angiotensin I-converting enzyme

ACE inhibitory activity (release of hippuric acid from HHL, HPLC at 228 nm; 50 mM borate, 0.3 M NaCl, pH 8.3, 37 °C, 60 min), IC50	Molecule
1.3 μM	VKP (peptide)
34.5 μM	VKCFR
